The target of test [1] is T1, GFP-La fusion protein La_(107–200) (Homo sapiens (Human)., UniProt P05455).
T1 construct: cloned into pEGFP-C2; pEGFP-C2 places GFP at the N-terminus of the insert (surmise); also called final La deletion mutant of Group 1; source: HeLa, transfected, in total extract
The test can be described thus: SDS-PAGE and immunoblotting; total extracts of HeLa cells transfected with GFP-La fusion constructs (N- or C-terminally truncated La); probed with anti-La mabs; anti-GFP as control. The settings on record: partners not purified. In general terms: In western blotting, separated proteins are transferred to a membrane and probed.

The target in test [2] is T2, recombinant mouse La protein (Mus musculus (Mouse)., UniProt P32067).
T2 construct: mouse La protein, open reading frame cloned into pET28b; also called rmLa; mLa (recombinant)
T2 sequence (P32067 whole entry): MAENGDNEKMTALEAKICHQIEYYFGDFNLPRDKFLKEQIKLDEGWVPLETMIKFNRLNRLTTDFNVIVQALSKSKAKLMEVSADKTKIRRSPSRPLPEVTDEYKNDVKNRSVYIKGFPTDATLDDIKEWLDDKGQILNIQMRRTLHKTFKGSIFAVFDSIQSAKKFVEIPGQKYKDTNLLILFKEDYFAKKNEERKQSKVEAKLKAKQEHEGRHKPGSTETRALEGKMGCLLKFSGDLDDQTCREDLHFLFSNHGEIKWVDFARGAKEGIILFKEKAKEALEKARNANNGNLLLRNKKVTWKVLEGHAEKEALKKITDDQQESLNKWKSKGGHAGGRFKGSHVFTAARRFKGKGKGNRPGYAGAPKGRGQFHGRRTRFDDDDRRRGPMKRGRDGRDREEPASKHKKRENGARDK
The test can be described thus: SDS-PAGE and immunoblotting; human (rhLa) or mouse (rmLa) La protein recombinantly expressed in E. coli, denatured on the blot; probed with hybridoma supernatants. As to conditions: one partner purified.

Test [3] has as its target T3, recombinant human La protein, full length (aa 1-408), His-tagged (Homo sapiens (Human)., UniProt P05455).
T3 construct: also called rhLa; hLa; not shown: His tag, C-terminal, kept
The description is as above. The settings on record: one partner purified.

Test [4] has as its target T4, GFP-La fusion protein La_(10–100) (Homo sapiens (Human)., UniProt P05455).
T4 construct: human La protein, residues 10-100 (La motif region); cloned into pEGFP-C2; pEGFP-C2 places GFP at the N-terminus of the insert (surmise); also called final La deletion mutant of Group 2; source: HeLa, transfected, in total extract
The test can be described thus: SDS-PAGE and immunoblotting; total extracts of HeLa cells transfected with GFP-La fusion constructs (N- or C-terminally truncated La); probed with anti-La mabs; anti-GFP as control. As to conditions: partners not purified.

Test [5] addresses T5, eukaryotic human La protein of HeLa cells (Homo sapiens (Human)., UniProt P05455).
T5 construct: human La/SS-B autoantigen, endogenous in HeLa cells; also called hLa; source: endogenous, HeLa total extract; endogenous, fixed HeLa cells
The test can be described thus: SDS-PAGE and immunoblotting; total extracts of human HeLa or mouse 3T3 cells, denatured on the blot; probed with hybridoma supernatants. As to conditions: partners not purified.

For test [6], the target named is T3, recombinant human La protein, full …. Nature of the test: SDS-PAGE and immunoblotting; recombinant human La (rhLa) on the blot; probed with purified recombinant 312B Ig4 or 312B ge Ig4. The settings on record: both partners purified.
The next test concerns the target T6, Ro60 antigen (Homo sapiens (assumed), UniProt P10155).
T6 construct: Ro60 (Ro/SS-A) antigen used in the anti-Ro ELISA; also called Ro/SS-A
The test can be described thus: ELISA; hybridoma supernatants on Ro60 antigen; performed as in ref. 59. For orientation: An ELISA detects its analyte on a solid surface through an enzyme-linked reagent.

Test [7] deals with T7, His-tagged La deletion mutant La_(278–408) (Homo sapiens (Human)., UniProt P05455).
T7 construct: cloned into pET28a
T7 sequence (P05455 278-408, stated change not applied): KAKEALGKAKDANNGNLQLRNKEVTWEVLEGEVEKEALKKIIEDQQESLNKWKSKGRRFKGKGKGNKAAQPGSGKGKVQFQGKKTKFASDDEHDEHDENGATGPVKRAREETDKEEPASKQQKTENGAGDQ
The test can be described thus: SDS-PAGE and immunoblotting; His-tagged full length La and N- and C-terminally truncated La deletion mutants from E. coli (nickel-NTA); probed with 16C; 10-fold the usual amount of protein applied. As to conditions: one partner purified.

T3 sequence (P05455 whole entry, the tested form may be a part): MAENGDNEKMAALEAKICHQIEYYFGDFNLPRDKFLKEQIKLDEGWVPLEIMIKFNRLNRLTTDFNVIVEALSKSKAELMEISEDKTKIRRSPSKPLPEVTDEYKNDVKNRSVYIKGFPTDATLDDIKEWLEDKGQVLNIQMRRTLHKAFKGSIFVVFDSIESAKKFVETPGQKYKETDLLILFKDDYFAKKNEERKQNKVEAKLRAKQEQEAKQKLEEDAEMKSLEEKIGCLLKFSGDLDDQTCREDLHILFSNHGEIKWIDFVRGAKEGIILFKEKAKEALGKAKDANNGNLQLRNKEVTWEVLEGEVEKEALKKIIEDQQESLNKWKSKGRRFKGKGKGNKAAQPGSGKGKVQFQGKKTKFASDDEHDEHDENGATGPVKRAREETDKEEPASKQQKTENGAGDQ
T4 sequence (P05455 10-100): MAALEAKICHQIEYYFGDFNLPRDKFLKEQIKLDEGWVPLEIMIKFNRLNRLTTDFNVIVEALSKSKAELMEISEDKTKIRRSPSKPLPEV
T5 sequence (P05455 whole entry): as the sequence (P05455 whole entry, the tested form may be a part) above
T1 sequence (P05455 107-200): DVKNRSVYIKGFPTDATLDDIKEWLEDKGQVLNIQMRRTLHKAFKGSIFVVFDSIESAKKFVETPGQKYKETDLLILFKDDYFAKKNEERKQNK
T6 sequence (P10155 whole entry): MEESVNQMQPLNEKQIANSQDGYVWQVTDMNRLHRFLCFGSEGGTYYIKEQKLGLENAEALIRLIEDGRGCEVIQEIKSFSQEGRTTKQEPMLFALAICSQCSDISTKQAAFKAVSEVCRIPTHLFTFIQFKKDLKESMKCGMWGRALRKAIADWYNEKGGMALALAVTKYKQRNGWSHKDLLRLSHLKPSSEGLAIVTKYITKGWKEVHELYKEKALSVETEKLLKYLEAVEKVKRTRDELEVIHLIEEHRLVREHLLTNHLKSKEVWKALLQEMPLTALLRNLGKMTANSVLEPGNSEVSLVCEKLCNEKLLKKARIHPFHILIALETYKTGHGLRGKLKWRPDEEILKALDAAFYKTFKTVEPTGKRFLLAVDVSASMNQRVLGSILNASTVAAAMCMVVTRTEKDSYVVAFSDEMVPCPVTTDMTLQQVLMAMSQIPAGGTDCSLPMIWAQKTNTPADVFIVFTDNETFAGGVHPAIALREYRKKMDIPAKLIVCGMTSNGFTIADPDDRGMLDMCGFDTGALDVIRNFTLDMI

B1: anti-La monoclonal antibody 22A (antibody, V domains shown)
VH: QVKLEESGPELVKPGAPVKISCKTSGYTFTNYYIYWVKQRPGQGLEWIGYIYPGNGGTAYNQKFKDKATLTADNPSNTAYMQLSSLTSEDSAVYLCARRGALGYYFDYWGQGTTLTVSS
VL: QIVLTQSPAIMSASPGEKVTMTCSASSSVSYMYWYQQKSGTSPKRWIYDTSKLASGVPARFSGSGSGTSYSLTISSMEAEDAATYYCQQWSSNPQFGTGTKLEVK
notes: variable heavy chain of 22A; variable light chain of 22A; IgG1; Vl kk4, JK5; From the human La transgenic mouse; also called Group 1 anti-La mab (22A); source: hybridoma cell culture supernatant
As to B1, the binding result in test [1] was “binds”.

B2: anti-La monoclonal antibody 312B (antibody, V domains shown)
VH: QVKLQESGAELMKPGSSVKFSCKAAGYTFTDYWIEWLKQRPGHGLEWIGEILPGSVSIKYNEKFKGKATFTADTSSNTAYMQLSSLTSEDSAVYYCARSRSIYDGYFYYWGQGTTLTVSS
VL: DIVMTQSTASLSASVGETVTITCRASENIYTYLAWYQQKQGKSPQLLVYNAKTLAEGVPSRFSGSGSGTQFSLRINSLQPEDFGSYYCQHHYGTPYTFGGGTKLEIK
notes: IgG1; Vl 12-44, JK2; From the human La transgenic mouse; source: hybridoma cell culture supernatant
As to B2, the binding result in test [2], in test [3], in test [4] and in test [5] was “binds” in each case.

B3: recombinant antibody based on the mature 312B sequence (scFv fused on a human IgG4 hinge and Fc) (Fc fusion, mouse)
VH: QVKLQESGAELMKPGSSVKFSCKAAGYTFTDYWIEWLKQRPGHGLEWIGEILPGSVSIKYNEKFKGKATFTADTSSNTAYMQLSSLTSEDSAVYYCARSRSIYDGYFYYWGQGTTLTVSS
VL: DIVMTQSTASLSASVGETVTITCRASENIYTYLAWYQQKQGKSPQLLVYNAKTLAEGVPSRFSGSGSGTQFSLRINSLQPEDFGSYYCQHHYGTPYTFGGGTKLEIK
notes: linker, printed as (Gly4Ser)3; VH-VL orientation; an Igkappa leader peptide was fused to the N-terminus for secretion; vector p6NST50; source: stably transduced 3T3 cell line, purified from cell culture supernatant (protein A); not shown: hinge and Fc (CH2-CH3) of human IgG4, C-terminal, kept
On to B3, for which the binding result in test [6] was “binds”.

B4: recombinant antibody based on the germline 312B sequence (scFv fused on a human IgG4 hinge and Fc) (Fc fusion, mouse)
VH: QVQLQQSGAELMKPGASVKLSCKATGYTFTGYWIEWVKQRPGHGLEWIGEILPGSGSTNYNEKFKGKATFTADTSSNTAYMQLSSLTTEDSAIYYCARSRSIYDGYFDYWGQGTTLTVSS
VL: DIQMTQSPASLSASVGETVTITCRASENIYSYLAWYQQKQGKSPQLLVYNAKTLAEGVPSRFSGSGSGTQFSLKINSLQPEDFGSYYCQHHYGTPYTFGGGTKLEIK
notes: as for B3
As to B4, the binding result in test [6] was “no binding”.

B5: IgM type anti-Ro60 monoclonal antibody 312G (antibody, V domains shown)
VH: EVQLEESGPGLVAPSQSLSITCTVSGFSLSRYSVHWVRQPPGKGLEWLGMIWGGGSTDYNSALKSRLSISKDNSKSQVFLKMNSLQTDDTAIYYCATSNWPYAMDYWGQGTSVTVSS
VL: DIVMTQSPAIMSASPGEKVTMTCSASSSVSYMHWYQQKSGTSPKRWIYDTSKLASGVPARFSGSGSGTSYSLTISSMEAEDAATYYCQQWSSNPPTFGAGTKLELK
notes: variable heavy chain of 312G; variable light chain of 312G; IgM; Vl kk4, JK5; From the human La transgenic mouse; called polyreactive; also called anti-Ro mab (312G); anti-Ro60 mab; source: hybridoma cell culture supernatant
As for B5, the results for the binding result (in test [3]; in the test with Ro60 antigen) were “no binding” and “binds”, respectively.

B6: anti-La monoclonal antibody 24BG7 (antibody, V domains shown)
VH: QVQLQQSGAELARPGASVKLSCKASGYSLTNYGISWVKQRTGQGLEWIGEIYRGSGNSYYNEKFKGKASLTADKSSSTAYMQLSSLTSEDSAVYFCARGGLSFAYWGQGTLVTVSA
VL: QIVLTQSPAIMSASPGEKVTMTCSASSSVTYMHWYQQKSGTSPKRWIYDTSKLASGVPARFSGSGSGTSYSLTISTMEAEDAATYYCQQWISNPPTFGGGTKLEIK
notes: variable heavy chain of 24BG7; variable light chain of 24BG7; IgG1; Vl kk4, JK2; From the human La transgenic mouse; also called Group 1 anti-La mab (24BG7); source: hybridoma cell culture supernatant
With B6, the binding result in test [1] was “binds”.

B7: anti-La monoclonal antibody 27E (antibody, V domains shown)
VH: EVQLQESGAELARPGASVKLSCKASGYSFRSYGINWVKQRTGQGLEWIGEIYPGSGTTFYNEKFRGKATLTADKSSSTAYMQLKSLTSEDSAVYFCARHGGYPFYFDYWGQGTTLTVSS
VL: DIVMTQSPAIMSASPGEKVTISCSASSSVSYMYWYQQKPGSSPKPWIYRTSNLASGVPARFSGSGSGTSYSLTISSMEAEDAATYYCQQYHSYPRTFGGGTKLEIK
notes: variable heavy chain of 27E; variable light chain of 27E; IgG2b; Vl aa4, JK1; From the human La transgenic mouse; also called Group 2 anti-La mab (27E); source: hybridoma cell culture supernatant
For the molecule B7, the binding result in test [3], in test [4] and in test [5] was “binds” throughout.

B8: anti-La monoclonal antibody 32A (antibody, V domains shown)
VH: EVQLQQSGAELARPGASVKLSCKASGYTFTTYGLTWVKQRTGQGLEWIGEIFPGSGTTFYNEKFNDKATLTADKSSSTAYMQLTSLTSEDSAVYFCARYSNYPYYFDYWGQGTTLTVSS
VL: QIVLTQSPTIMSASPGEKVTISCSASSSVSYMYWYQQKPGSSPKPWIYRTSNLASGVPDRFSGSGSGTSYSLTISSMEAEDAATYYCQQYHSYPRTFGGGTKLEIK
notes: variable heavy chain of 32A; variable light chain of 32A; IgG1; Vl aa4, JK1; From the human La transgenic mouse; also called Group 2 anti-La mab (32A); source: hybridoma cell culture supernatant
Consider B8, for which, in test [4], the binding result is “binds”.

B9: IgM type anti-La monoclonal antibody 16C (antibody, V domains shown)
VH: EVKLEESGPELVKPGSSVKISCKASGYTFTDYNMDWVKQSHGKSLEWIGAINPNNGGTSYNQKFKGKATLTVDKSSSTAYMELRSLTSEDSAVYYCARRDGGSYEWAMDYWGQGTSVTVSS
VL: DIVLTQSPASLSMAIGEKVTIRCITSTDIDDDMNWYQQKPGEPPKLLISEGNTLRPGVPSRFSSSGYGTDFVFTIENMLSEDVADYYCLQSDNLPLTFGGGTKLEIK
notes: variable heavy chain of 16C; variable light chain of 16C; IgM; Vl bt20, JK2; From the human La transgenic mouse; called polyreactive; also called anti-La mab (16C); source: hybridoma cell culture supernatant
As for B9, the binding result in test [7] is “binds”.

B10: anti-La monoclonal antibody 2F9 (antibody, V domains shown)
VH: EVQLQESGPGILQPSQTLSLTCSFSGFSLSTSGMGVSWIRQPSGKGLEWLAHIYWDDDKGYNPSLKSRLTISKDTSRNQVFLKITSVDTADTATYYCARGDVEFDYWGQGTTLTVSS
VL: DIVLTQSTASLAVSLGQRATISCRASESVDSYGNSFMHWYQQKPGQPPKLLIYRASNLESGIPARFSGSGSRTDFTLTINPVEADDVATYYCQQSNEDPPTFGSGTKLEIK
notes: variable heavy chain of 2F9; variable light chain of 2F9; IgG1; Vl 21-5, JK4; From the human La transgenic mouse; also called Group 2 anti-La mab (2F9); source: hybridoma cell culture supernatant
Take B10: the binding result in test [4] is on record as “binds”.

The values are drawn from PMC7865296, “T Cell Mediated Conversion of a Non-Anti-La Reactive B Cell to an Autoreactive Anti-La B Cell by Somatic Hypermutation †” (International Journal of Molecular Sciences, 2021).
